Measured values published in patent US20250312444A1 (BEIJING TUO JIE BIOPHARMACEUTICAL, published 2025).
Like-named read-outs stand apart in the source and are kept apart here.

Key:
Test in all cases: SPR Biacore T200, antibody captured by anti-His, albumin as analyte
[1] = target: human serum albumin (HSA) (human)
Experimental: (§1) The affinity constants of the 6His-tagged humanized anti-HSA antibodies for human, monkey and mouse albumins were determined using a Biacore T200 (GE Healthcare) instrument. Firstly, amino coupling was performed on a CM5 S series chip (GE, Cat. 29-1049-88) by using an amino coupling kit (GE, Cat. BR-1000-50) and a His capture kit (GE, Cat. 28-9950-56) according to the kit manuals. The surface response value reached about 10000 RU. The chip was then blocked with ethanolamine for later use. The 6His-tagged humanized anti-HSA antibodies were each captured onto the anti-his chip through affinity. Then, different concentrations of human, monkey and mouse albumins were flowed over the surface of the chip, and the reaction signals were detected in real-time using the Biacore instrument to obtain the association and dissociation curves. Finally, fitting was performed with a Langmuir 1:1 binding model using BIAevaluation version 4.1, GE software to obtain the affinity constants. The buffer used in the experiment was an HBS-EP solution (10 mM HEPES, 150 mM NaCl, 3 mM EDTA, 0.05% P20, pH 7.4, GE, Cat. #BR-1006-69). After the end of each cycle, the chip was regenerated using glycine-hydrochloric acid (pH 1.5) (GE, Cat. #BR-1003-54).

[2] = target: T1, monkey serum albumin (CySA) (monkey)
T1 chain: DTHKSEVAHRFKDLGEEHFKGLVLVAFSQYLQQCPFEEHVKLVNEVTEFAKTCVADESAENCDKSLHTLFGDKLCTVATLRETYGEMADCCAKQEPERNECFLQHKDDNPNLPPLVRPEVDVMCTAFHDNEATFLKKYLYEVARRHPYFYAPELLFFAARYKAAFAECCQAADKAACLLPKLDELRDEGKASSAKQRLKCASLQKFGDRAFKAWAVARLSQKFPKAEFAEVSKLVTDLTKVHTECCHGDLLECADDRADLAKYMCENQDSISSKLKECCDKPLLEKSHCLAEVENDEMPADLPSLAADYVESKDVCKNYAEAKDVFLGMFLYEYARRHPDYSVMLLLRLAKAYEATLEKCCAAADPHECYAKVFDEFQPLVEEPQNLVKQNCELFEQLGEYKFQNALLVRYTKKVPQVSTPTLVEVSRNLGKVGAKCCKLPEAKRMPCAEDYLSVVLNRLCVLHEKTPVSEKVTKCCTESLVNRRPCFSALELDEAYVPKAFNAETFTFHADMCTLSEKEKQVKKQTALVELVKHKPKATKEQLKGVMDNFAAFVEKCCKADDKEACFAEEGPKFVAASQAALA
Experimental: as §1

[3] = target: mouse serum albumin (mSA) (mouse)
Experimental: as §1

[4] = target: human serum albumin (HSA) (human); remark: listed apart in the source
Experimental: (§2) The anti-HSA antibody 7_Hu_10-6his was transiently expressed in HEK293E cells. After affinity purification with a nickel column, the affinity constants of the antibody for human, monkey, mouse, rat, dog and rabbit albumins were determined using a Biacore T200 (GE Healthcare) instrument. Firstly, amino coupling was performed on a CM5 S series chip (GE, Cat. 29-1049-88) by using an amino coupling kit (GE, Cat. BR-1000-50) and a His capture kit (GE, Cat. 28-9950-56) according to the kit manuals. The surface response value reached about 10000 RU. The chip was then blocked with ethanolamine for later use. The 6His-tagged humanized anti-HSA antibodies were each captured onto the anti-his chip through affinity. Then, different concentrations of human, monkey, mouse, rat, dog and rabbit albumins were flowed over the surface of the chip, and the reaction signals were detected in real-time using the Biacore instrument to obtain the association and dissociation curves. Finally, fitting was performed with a Langmuir 1:1 binding model using BIAevaluation version 4.1, GE software to obtain the affinity constants. The buffer used in the experiment was an HBS-EP solution (10 mM HEPES, 150 mM NaCl, 3 mM EDTA, 0.05% P20, pH 7.4, GE, Cat. #BR-1006-69). 20 After the end of each cycle, the chip was regenerated using glycine-hydrochloric acid (pH 1.5) (GE, Cat. #BR-1003-54).

[5] = target: T1, monkey serum albumin (CySA)
Experimental: as §2

[6] = target: mouse serum albumin (mSA) (mouse); remark: listed apart in the source
Experimental: as §2

rat serum albumin = target: T2, rat serum albumin (rat)
T2 chain: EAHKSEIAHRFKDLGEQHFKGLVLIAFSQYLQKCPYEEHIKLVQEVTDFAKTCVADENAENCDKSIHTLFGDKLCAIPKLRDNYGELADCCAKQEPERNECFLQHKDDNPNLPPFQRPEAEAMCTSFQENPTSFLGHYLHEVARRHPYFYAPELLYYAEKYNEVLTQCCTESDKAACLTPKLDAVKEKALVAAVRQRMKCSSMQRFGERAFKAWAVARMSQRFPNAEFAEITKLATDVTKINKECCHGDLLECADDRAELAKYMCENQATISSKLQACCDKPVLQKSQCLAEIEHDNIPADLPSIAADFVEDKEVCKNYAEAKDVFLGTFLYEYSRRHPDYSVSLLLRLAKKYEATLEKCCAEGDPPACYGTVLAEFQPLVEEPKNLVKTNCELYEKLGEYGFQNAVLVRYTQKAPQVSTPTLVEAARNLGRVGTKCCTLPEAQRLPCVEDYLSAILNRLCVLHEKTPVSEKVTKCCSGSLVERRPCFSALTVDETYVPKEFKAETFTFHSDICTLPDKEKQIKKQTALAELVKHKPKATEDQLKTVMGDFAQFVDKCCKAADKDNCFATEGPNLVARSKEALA
Experimental: as §2

dog serum albumin = target: T3, dog serum albumin (dog, UniProt P49822 25-608)
T3 construct: also called Dog SA; dog albumin
Experimental: as §2

rabbit serum albumin = target: T4, rabbit serum albumin (rabbit, UniProt P49065 25-608)
T4 construct: also called Rabbit SA; rabbit albumin
Experimental: as §2

Kd [1]: 11.5 nM
koff [1]: 0.000347 s⁻¹
kon [1]: 30100 M⁻¹ s⁻¹
Kd [2]: 31 nM
koff [2]: 0.000545 s⁻¹
kon [2]: 17600 M⁻¹ s⁻¹
Kd [3]: 328 nM
koff [3]: 0.0196 s⁻¹
kon [3]: 59700 M⁻¹ s⁻¹
Kd [4]: 10.6 nM
koff [4]: 0.000683 s⁻¹
kon [4]: 64700 M⁻¹ s⁻¹
Kd [5]: 14.5 nM
koff [5]: 0.000697 s⁻¹
kon [5]: 47900 M⁻¹ s⁻¹
Kd [6]: 653 nM
koff [6]: 0.0254 s⁻¹
kon [6]: 38900 M⁻¹ s⁻¹
Kd (rat serum albumin): 158 nM
koff (rat serum albumin): 0.00461 s⁻¹
kon (rat serum albumin): 29200 M⁻¹ s⁻¹
Kd (dog serum albumin): 342 nM
koff (dog serum albumin): 0.0211 s⁻¹
kon (dog serum albumin): 61700 M⁻¹ s⁻¹
binding result (rabbit serum albumin): no binding
B1: #7_Hu_10-6His (VHH)
VHH: EVQLLESGGGLVQPGGSLRLSCAASGFTFLTSCMGWFRQAPGKEREGVSSIYTVGGSTFYTNSVKGRFTISRDNSKNTLYLQMNSLRAEDTAVYYCAAGSPARCRLRDPTTFDYWGQGTLVTVSS
